Target: PDZ1/2 domain (Homo sapiens (Human)), P78352
Test: SPR, Biacore 3000, PDZ1/2 amine-coupled on CM5 chip, peptide as analyte, 1:1 binding model

Chain of PDZ1/2 domain (Homo sapiens (Human)), P78352 (P78352 65-246 limits assumed): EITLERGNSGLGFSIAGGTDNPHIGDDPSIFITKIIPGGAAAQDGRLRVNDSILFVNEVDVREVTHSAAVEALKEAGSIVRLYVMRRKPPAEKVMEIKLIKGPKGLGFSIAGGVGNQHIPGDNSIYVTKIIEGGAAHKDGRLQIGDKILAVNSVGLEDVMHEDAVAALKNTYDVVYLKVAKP

YGRKKRRQRRRYEKLSSIESDV (modifications not checked) [chimeric peptide YE-NA-1]
Kd: 54.4 nM

From patent US20200385425A1
